Test results: article PMC3524116

Molecular target: Recombinant His6-tagged UVI31+ protein from C. reinhardtii (C. reinhardtii)
Experiment: SEC; gel filtration on a Sephadex G75 column in 50 mM sodium phosphate (pH 7.6), 50 mM NaCl; major peak at 87 ml (monomer), small hump at 68-75 ml (dimer)

- stoichiometry N: 2
Substance: Recombinant His6-tagged UVI31+ protein from C. reinhardtii (natural protein)
